From patent US20100330089A1 (Pfizer, published 2010)

Key:
Human CD20 (human) [1] = target: T1, Human CD20 (human) (UniProt P11836); experiment: flow cytometry on primary human B cells, binder at 1.1 ug/ml (second block)
T1 sequence: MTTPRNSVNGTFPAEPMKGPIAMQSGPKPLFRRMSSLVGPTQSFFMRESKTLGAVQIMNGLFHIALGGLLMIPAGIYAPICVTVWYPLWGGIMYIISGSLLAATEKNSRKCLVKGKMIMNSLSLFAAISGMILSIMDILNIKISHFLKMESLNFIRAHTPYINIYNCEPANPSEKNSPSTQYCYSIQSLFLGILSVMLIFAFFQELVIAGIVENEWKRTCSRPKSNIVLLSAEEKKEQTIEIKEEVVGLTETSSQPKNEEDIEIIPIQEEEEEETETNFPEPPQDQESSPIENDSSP

Human CD20 (human) [2] = target: T1, Human CD20 (human); experiment: flow cytometry on primary human B cells, binder at 0.04 ug/ml (second block)
Human CD20 (human) [3] = target: T1, Human CD20 (human); experiment: cell-based or functional assay
Human CD20 (human) [4] = target: T1, Human CD20 (human); experiment: flow cytometry on primary human B cells, binder at 0.37 ug/ml (first block)
Human CD20 (human) [5] = target: T1, Human CD20 (human); experiment: flow cytometry on primary human B cells, binder at 1.1 ug/ml (first block)
Human CD20 (human) [6] = target: T1, Human CD20 (human); experiment: flow cytometry on primary human B cells, binder at 0.12 ug/ml (second block)
Human CD20 (human) [7] = target: T1, Human CD20 (human); experiment: flow cytometry on primary human B cells, binder at 0.12 ug/ml (first block)
Human CD20 (human) [8] = target: T1, Human CD20 (human); experiment: flow cytometry on primary human B cells, binder at 10 ug/ml (second block)
Human CD20 (human) [9] = target: T1, Human CD20 (human); experiment: flow cytometry on primary human B cells, binder at 10 ug/ml (first block)
Human CD20 [10] = target: T2, Human CD20 (human, UniProt P11836 1-297); experiment: flow cytometry on primary human B cells, binder at 1.1 ug/ml (second block)
T2 construct: also called Bp35
T2 sequence: T1 sequence

Human CD20 [11] = target: T2, Human CD20; experiment: flow cytometry on primary human B cells, binder at 0.04 ug/ml (second block)
Human CD20 [12] = target: T2, Human CD20; experiment: cell-based or functional assay
Human CD20 [13] = target: T2, Human CD20; experiment: flow cytometry on primary human B cells, binder at 0.12 ug/ml (second block)
Human CD20 [14] = target: T2, Human CD20; experiment: flow cytometry on primary human B cells, binder at 0.12 ug/ml (first block)
Human CD20 [15] = target: T2, Human CD20; experiment: flow cytometry on primary human B cells, binder at 10 ug/ml (second block)
Human CD20 [16] = target: T2, Human CD20; experiment: flow cytometry on primary human B cells, binder at 10 ug/ml (first block)
CD20 (primary B cells) = CD20 (primary B cells) (UniProt P11836); experiment: flow cytometry; settings: Fc fusion
Human CD20 [17] = target: T2, Human CD20; experiment: flow cytometry on NU-DHL1, Ramos, SU-DHL4, SU-DHL5 and WSU-DLCL2 cells; confirmed by immunofluorescence on Ramos and WSU-DLCL2
Experimental: (§1) Each of these cell lines was derived from a distinct non-Hodgkin's B-cell lymphoma patient. Briefly, increasing concentrations of CD20-binders were incubated with 100,000 BCL for 30 min at 4° C. Cells were then washed twice with PBS containing 1% BSA to remove unbound antibody and then a FITC labeled goat anti-human (H+ L) secondary antibody (100 fold diluted) was added for 30 min at 4° C. The cells were again washed twice to remove unbound secondary antibody and then resuspended in 1% formaldehyde (in PBS) with 1% BSA. Fluorescence intensity of each sample was measured using a Becton Dickinson FACSORT flow cytometer. Results are expressed as the geometric mean (GeoMean) of the fluorescent intensity.

Human CD20 [18] = target: T2, Human CD20; experiment: flow cytometry on five human B-lymphoma cell lines
Experimental: as §1

In the case of RITUXAN (rituximab) (antibody), the MFI (Human CD20 (human) [1]) is reported as 93 MFI, the MFI (Human CD20 (human) [2]) is reported as 43.1 MFI and the % lysis (CDC on Ramos cells), 0.12 ug/ml (Human CD20 (human) [3]) is reported as 56.5 % lysis. The % lysis (CDC on Ramos cells), 0.37 ug/ml (Human CD20 (human) [3]) was 60.2 % lysis, the % lysis (CDC on Ramos cells), 1.1 ug/ml (Human CD20 (human) [3]) was 57.1 % lysis and the % lysis (CDC on Ramos cells), 10 ug/ml (Human CD20 (human) [3]) was 82.5 % lysis. For the same molecule, the % lysis (CDC on Ramos cells), 1 nm (Human CD20 (human) [3]) was 67.6 % lysis, the % lysis (CDC on Ramos cells), 4 nm (Human CD20 (human) [3]) was 65.1 % lysis and the % lysis (CDC on Ramos cells), 11 nm (Human CD20 (human) [3]) was 66.3 % lysis. The % lysis (CDC on Ramos cells), 100 nm (Human CD20 (human) [3]) was 81.9 % lysis, the MFI (Human CD20 (human) [4]) was 137 MFI and the MFI (Human CD20 (human) [5]) was 173 MFI. The MFI (Human CD20 (human) [6]) was 82.3 MFI, the MFI (Human CD20 (human) [7]) was 106 MFI and the MFI (Human CD20 (human) [8]) was 172 MFI. It also gave an MFI (Human CD20 (human) [9]) of 199 MFI.

Molecule TRU-015 (Fc fusion) has an MFI (Human CD20 [10]) of 53.4 MFI, an MFI (Human CD20 [11]) of 19.9 MFI and a % lysis (CDC on Ramos cells), 0.12 ug/ml (Human CD20 [12]) of 16.3 % lysis. It also gave a % lysis (CDC on Ramos cells), 0.37 ug/ml (Human CD20 [12]) of 38.8 % lysis, a % lysis (CDC on Ramos cells), 1.1 ug/ml (Human CD20 [12]) of 56.1 % lysis and a % lysis (CDC on Ramos cells), 10 ug/ml (Human CD20 [12]) of 67.7 % lysis. For the same molecule, the % lysis (CDC on Ramos cells), 1 nm (Human CD20 [12]) was 19.8 % lysis, the % lysis (CDC on Ramos cells), 4 nm (Human CD20 [12]) was 26.2 % lysis and the % lysis (CDC on Ramos cells), 11 nm (Human CD20 [12]) was 49.7 % lysis. For the same molecule, the % lysis (CDC on Ramos cells), 100 nm (Human CD20 [12]) was 86.1 % lysis, the MFI (Human CD20 [13]) was 31.4 MFI and the MFI (Human CD20 [14]) was 42.8 MFI. It also gave an MFI (Human CD20 [15]) of 124 MFI and an MFI (Human CD20 [16]) of 149 MFI.

For TRU-015, the EC50 (CD20 (primary B cells)) was 0.279 µg/mL.

B1: 018011 (Fc fusion)
chain: EIVLTQSPATLSLSPGERATLSCRASQSVSYIVWYQQKPGQAPRLLIYAPSNLASGIPARFSGSGSGTDFTLTISSLEPEDFAVYYCQQWSFNPPTFGQGTKVEIKDGGGSGGGGSGGGGTGEVQLVQSGAEVKKPGESLKISCKGSGYSFTSYNMHWVRQMPGKGLEWMGAIYPGNGDTSYNQKFKGQVTISADKSISTAYLQWSSLKASDTAMYYCARSYYSNSYWYFDLWGRGTLVTVSS
notes: not shown: called human IgG1
B1: binds (Human CD20 [17]).

B2: 018008 (Fc fusion, not shown: a dimerising Fc or GST)
chain: EIVLTQSPATLSLSPGERATLSCRASQSVSYMHWYQQKPGQAPRLLIYAPSNLASGIPARFSGSGSGTDFTLTISSLEPEDFAVYYCQQWSFNPPTFGQGTKVEIKDGGGSGGGGSGGGGTGEVQLVQSGAEVKKPGESLKISCKGSGYSFTSYNMHWVRQMPGKGLEWMGAIYPGNGDTSYNQKFKGQVTISADKSISTAYLQWSSLKASDTAMYYCARVVYYSNSYWYFDLWGRGTLVTVSS
notes: Humanized SMIP as named without a hinge suffix
B2: binds (Human CD20 [18]).

B3: 2Lm20-4 (Fc fusion, not shown: a dimerising Fc or GST)
chain: EIVLTQSPATLSLSPGERATLSCRASSSVSYIVWYQQKPGQAPRLLIYAPSNLASGIPARFSGSGSGTDFTLTISSLEPEDFAVYYCQQWSFNPPTFGQGTKVEIKDGGGSGGGGSGGGGSSQVQLVQSGAEVKKPGASVKVSCKASGYTFTSYNMHWVRQAPGQGLEWMGAIYPGNGDTSYNQKFKGRVTMTRDTSTSTVYMELSSLRSEDTAVYYCARSYYSNSYWYFDLWGRGTLVTVSS
notes: as for B2
B3: binds (Human CD20 [18]).
